“And” between values parts separate entries of the source, which are not always exact repeats. Equal values may be shown once.
Biological target: the molecule itself
Test: cross-linking; purified FlgD with EDC and Sulfo-NHS (molar ratio 1 : 2000) or DTSSP (1 : 50), products on SDS-PAGE

B1: S. enterica FlgD (flagellar hook cap protein, 232 amino acid residues) (natural protein)
chain: MSIAVNMNDPTNTGVKTTTGSGSMTGSNAADLQSSFLTLLVAQLKNQDPTNPLQNNELTTQLAQISTVSGIEKLNTTLGAISGQIDNSQSLQATTLIGHGVMVPGTTILAGKGAEEGAVTSTTPFGVELQQPADKVTATITDKDGRVVRTLEIGELRAGVHTFTWDGKQTDGTTVPNGSYNIAITASNGGTQLVAQPLQFALVQGVTKGSNGNLLDLGTYGTTTLDEVRQII
notes: Separates on gel filtration into a pentamer and a monomer fraction; A seleno-methionine form (E. coli B834(DE3)) was used for phasing only; also called full-length FlgD; source: E. coli BL21(DE3)pLysS, purified (Q-Sepharose, Butyl-Sepharose, Superdex 200)
stoichiometry N: 5 and 10

Source: article PMC8595650, “Structure of the bacterial flagellar hook cap provides insights into a hook assembly mechanism” (Communications Biology, 2021)
